Results: paper PMC5773591, “Structural basis of trans-synaptic interactions between PTPδ and SALMs for inducing synapse formation” (Nature Communications, 2018)
Each block holds one molecule with its values, some of them ahead of it.

B2: human SALM5 LRR–Ig-His6 (residues 18–378) (domain or fragment, UniProt Q96NI6 18-378, looked up)
chain: QICPKRCVCQILSPNLATLCAKKGLLFVPPNIDRRTVELRLADNFVTNIKRKDFANMTSLVDLTLSRNTISFITPHAFADLRNLRALHLNSNRLTKITNDMFSGLSNLHHLILNNNQLTLISSTAFDDVFALEELDLSYNNLETIPWDAVEKMVSLHTLSLDHNMIDNIPKGTFSHLHKMTRLDVTSNKLQKLPPDPLFQRAQVLATSGIISPSTFALSFGGNPLHCNCELLWLRRLSREDDLETCASPPLLTGRYFWSIPEEEFLCEPPLITRHTHEMRVLEGQRATLRCKARGDPEPAIHWISPEGKLISNATRSLVYDNGTLDILITTVKDTGAFTCIASNPAGEATQIVDLHIIKLP
notes: human SALM5 (synaptic adhesion-like molecule 5, Lrfn family), LRR–Ig, residues 18–378; Homodimer by SEC-MALS; The synaptogenic assay used another construct (entire ECD fused to Fc); also called SALM5 WT; apo-SALM5; source: Expi293F, transiently expressed, secreted, purified (Ni-NTA, Superdex200 SEC); not shown: His6, C-terminal, kept

Columns and labels:
IL1RAPL1 (Mus musculus) = IL1RAPL1 (Mus musculus) (UniProt P59823); conditions: cited from earlier work
[1] = molecular target: human SALM5 LRR–Ig-His6 L288A (human) (UniProt Q96NI6); assay: SPR; Biacore T200, 25 °C, 10 mM Hepes-Na (pH 7.5), 200 mM NaCl, 0.05% Tween20; SALM5 proteins immobilised on a CM5 chip by amino coupling; PTPδ proteins injected as analytes (0.1–260 μM)
[2] = molecular target: human SALM5 LRR–Ig-His6 I358A (human) (UniProt Q96NI6); assay: as above
[3] = molecular target: human SALM5 LRR–Ig-His6 R253A (human) (UniProt Q96NI6); assay: as above
[4] = molecular target: human SALM5 LRR–Ig-His6 (residues 18–378) (human) (UniProt Q96NI6); assay: as above
[5] = molecular target: human SALM5 LRR–Ig-His6 I321A (human) (UniProt Q96NI6); assay: as above
[6] = molecular target: human SALM5 LRR–Ig-His6 L249A (human) (UniProt Q96NI6); assay: as above
[7] = molecular target: human SALM5 LRR–Ig-His6 Q134N (human) (UniProt Q96NI6); assay: as above
[8] = molecular target: the molecule itself; assay: SEC-MALS; SALM LRR–Ig proteins at 0.5 g/L on ENrich SEC 650 in 20 mM Tris-HCl (pH 7.4), 250 mM NaCl; dimer of monomers
[9] = molecular target: mouse PTPδ Ig1–Fn1 (A9B–) (mouse, UniProt Q64487 28-418, B– (meB insert 234ELRE237 absent)); assay: SPR; Biacore T200, 25 °C, 10 mM Hepes-Na (pH 7.5), 200 mM NaCl, 0.05% Tween20; SALM5 proteins immobilised on a CM5 chip by amino coupling; PTPδ proteins injected as analytes (0.1–260 μM); conditions: both partners purified
[10] = molecular target: B2; assay: as above; conditions: both partners purified

Sequence of IL1RAPL1 (Mus musculus) (P59823 25-357): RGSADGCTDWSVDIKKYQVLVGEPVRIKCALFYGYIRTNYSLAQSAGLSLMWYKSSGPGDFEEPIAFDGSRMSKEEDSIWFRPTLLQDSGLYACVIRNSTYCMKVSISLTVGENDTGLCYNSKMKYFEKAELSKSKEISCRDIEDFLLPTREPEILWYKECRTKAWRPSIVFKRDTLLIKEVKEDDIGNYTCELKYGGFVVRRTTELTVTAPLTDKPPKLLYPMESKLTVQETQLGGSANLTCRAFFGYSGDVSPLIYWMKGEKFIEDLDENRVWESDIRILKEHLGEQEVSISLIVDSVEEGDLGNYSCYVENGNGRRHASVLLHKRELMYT

Molecule: PTPδ (from UniProt Q64487)
- Kd (IL1RAPL1 (Mus musculus)): 0.15 µM

- Kd [1]: 129 µM
- Kd [2]: 31.4 µM
- Kd [3]: 95.2 µM
- Kd [4]: 14.4 µM
- Kd [5]: 21.9 µM
- Kd [6]: 169 µM
- Kd [7]: 9 µM
Molecule: mouse PTPδ Ig1–Fn1 (A9B+)-His6 (domain or fragment)

- Kd [4]: 25 µM
Molecule: mouse PTPδ Ig1–Fn1 (A9B+)-His6 L153A (domain or fragment)

- Kd [4]: 39.9 µM
Molecule: mouse PTPδ Ig1–Fn1 (A9B+)-His6 M137A (domain or fragment)

- Kd [4]: 37.3 µM
Molecule: mouse PTPδ Ig1–Fn1 (A9B+)-His6 M312A (domain or fragment)

- Kd [4]: 150 µM
Molecule: mouse PTPδ Ig1–Fn1 (A9B+)-His6 V143A (domain or fragment)

- Kd [4]: 70.9 µM
Molecule: mouse PTPδ Ig1–Fn1 (A9B+)-His6 Y231A (domain or fragment)

- Kd [4]: 77.5 µM
Molecule: mouse PTPδ Ig1–Fn1 (A9B+)-His6 Y273A (domain or fragment)

- Kd [4]: 13.5 µM
Molecule: mouse PTPδ Ig1–Fn1 (A–B+) (from UniProt Q64487 28-418) (domain or fragment)

B1: mouse SALM2 LRR–Ig-His6 (residues 32–390) (domain or fragment, UniProt Q2WF71 32-390, looked up)
chain: QPCPGRCICQNVAPTLTMLCAKTGLLFVPPAIDRRVVELRLTDNFIAAVRRRDFANMTSLVHLTLSRNTIGQVAAGAFADLRALRALHLDSNRLAEVRGDQLRGLGNLRHLILGNNQIRKVESAAFDAFLSTVEDLDLSYNNLEALPWEAVGQMVNLNTLTLDHNLIDHIAEGTFVQLHKLVRLDMTSNRLHKLPPDGLFLRSQGGGPKPPTPLTVSFGGNPLHCNCELLWLRRLTREDDLETCATPEHLTDRYFWSIPEEEFLCEPPLITRQAGGRALVVEGQAVSLRCRAVGDPEPVVHWVAPDGRLLGNSSRTRVRGDGTLDVTITTLRDSGTFTCIASNAAGEATAPVEVCVVPL
notes: mouse SALM2 (synaptic adhesion-like molecule 2, Lrfn family), LRR–Ig, residues 32–390; Homodimer by SEC-MALS; source: Expi293F, transiently expressed, secreted, purified (Ni-NTA, Superdex200 SEC); not shown: His6, C-terminal, kept
- stoichiometry N [8]: 2

Molecule: B2
- Kd [9]: 106 ± 17 µM
- stoichiometry N [8]: 2

- Kd [10]: 21.9 ± 0.23 µM
B3: mouse PTPδ Ig1–Fn1 (A9B+)-His6 Q209A (domain or fragment)
chain: ETPPRFTRTPVDQTGVSGGVASFICQATGDPRPKIVWNKKGKKVSNQRFEVIEFDDGSGSVLRIQPLRTPRDEAIYECVASNNVGEISVSTRLTVLREDQIPRGFPTIDMGPQLKVVERTRTATMLCAASGNPDPEITWFKDFLPVDTSNNNGRIKQLRSESIGGTPIRGALQIEQSEESDAGKYECVATNSAGTRYSAPANLYVRELREVRRVPPRFSIPPTNHEIMPGGSVNITCVAVGSPMPYVKWMLGAEDLTPEDDMPIGRNVLELNDVRQSANYTCVAMSTLGVIEAIAQITVKALPKPPGTPVVTESTATSITLTWDSGNPEPVSYYIIQHKPKNSEEPYKEIDGIATTRYSVAGLSPYSDYEFRVVAVNNIGRGPASEPVLTQ

- Kd [10]: 24.8 ± 1.2 µM
B4: mouse PTPδ Ig1–Fn1 (A9B+)-His6 R233A (domain or fragment)
chain: ETPPRFTRTPVDQTGVSGGVASFICQATGDPRPKIVWNKKGKKVSNQRFEVIEFDDGSGSVLRIQPLRTPRDEAIYECVASNNVGEISVSTRLTVLREDQIPRGFPTIDMGPQLKVVERTRTATMLCAASGNPDPEITWFKDFLPVDTSNNNGRIKQLRSESIGGTPIRGALQIEQSEESDQGKYECVATNSAGTRYSAPANLYVAELREVRRVPPRFSIPPTNHEIMPGGSVNITCVAVGSPMPYVKWMLGAEDLTPEDDMPIGRNVLELNDVRQSANYTCVAMSTLGVIEAIAQITVKALPKPPGTPVVTESTATSITLTWDSGNPEPVSYYIIQHKPKNSEEPYKEIDGIATTRYSVAGLSPYSDYEFRVVAVNNIGRGPASEPVLTQ
